This note sets out measurements from patent publication US20240132587A1 (published 2024).

Numbering of substitutions follows the chain as printed.

What is called EC50 is the concentration at which the effect is half-maximal. Low values mean a more potent agent, high ones a less potent agent.

First the molecules themselves.
T1: rat CLDN18.2 (rat, UniProt Q5I0E5 1-261)
T1 chain: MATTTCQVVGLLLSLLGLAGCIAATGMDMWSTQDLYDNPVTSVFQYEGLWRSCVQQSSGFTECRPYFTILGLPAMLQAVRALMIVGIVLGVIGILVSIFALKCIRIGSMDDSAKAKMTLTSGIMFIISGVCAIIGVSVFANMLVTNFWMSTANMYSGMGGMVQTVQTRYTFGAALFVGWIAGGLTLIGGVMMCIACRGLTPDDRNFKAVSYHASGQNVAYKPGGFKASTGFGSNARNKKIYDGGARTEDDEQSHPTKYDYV

T2: mouse CLDN18.2 (mouse, UniProt P56857 1-264)
T2 chain: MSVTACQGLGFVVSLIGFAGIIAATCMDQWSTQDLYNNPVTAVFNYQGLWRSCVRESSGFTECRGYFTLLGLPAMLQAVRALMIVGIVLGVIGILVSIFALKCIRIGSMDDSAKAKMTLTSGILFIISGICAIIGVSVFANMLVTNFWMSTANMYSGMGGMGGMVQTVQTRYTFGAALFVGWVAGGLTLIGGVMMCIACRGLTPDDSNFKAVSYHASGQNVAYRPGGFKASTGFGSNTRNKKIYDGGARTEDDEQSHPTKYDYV

B1: 008LYG_D08 IgG1 (antibody, V domains shown)
VH: QVQLVQSGAEVKKPGSSVKVSCKASGGTFSSYAISWVRQAPGQGLEWMGGIIPIFGTANYAQKFQGRVTITADESTSTAYMELSSLRSEDTAVYYCARGYQGMGVFDPWGQGTLVTVSS
VL: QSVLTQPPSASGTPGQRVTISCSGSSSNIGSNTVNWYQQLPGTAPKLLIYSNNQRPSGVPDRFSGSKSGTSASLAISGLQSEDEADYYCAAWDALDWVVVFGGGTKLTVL
B2: 008LY1_D04 IgG1 (antibody, V domains shown)
VH: B1 VH with Q101V, G102Q, M103Y, V105Y, P108Y
VL: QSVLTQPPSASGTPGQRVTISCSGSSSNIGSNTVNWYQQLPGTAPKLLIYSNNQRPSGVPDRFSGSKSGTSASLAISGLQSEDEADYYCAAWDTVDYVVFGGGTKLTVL
B3: ZP1I16_D05 IgG1 (antibody, V domains shown)
VH: B1 VH with Y100F, Q101I, G102R, M103Y, P108Y
VL: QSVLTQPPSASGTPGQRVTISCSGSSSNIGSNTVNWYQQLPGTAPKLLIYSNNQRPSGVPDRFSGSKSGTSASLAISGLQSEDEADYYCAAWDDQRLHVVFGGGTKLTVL
B4: 008M0G_G03 IgG1 (antibody, V domains shown)
VH: B1 VH with Q101P, G102R, M103Y, P108Y
VL: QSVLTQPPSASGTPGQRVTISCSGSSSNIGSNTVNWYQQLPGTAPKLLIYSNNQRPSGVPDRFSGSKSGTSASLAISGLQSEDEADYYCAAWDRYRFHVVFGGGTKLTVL
B5: ZP1I18_B08 IgG1 (antibody, V domains shown)
VH: B1 VH with Y100F, Q101I, G102R, M103Y, P108Y
VL: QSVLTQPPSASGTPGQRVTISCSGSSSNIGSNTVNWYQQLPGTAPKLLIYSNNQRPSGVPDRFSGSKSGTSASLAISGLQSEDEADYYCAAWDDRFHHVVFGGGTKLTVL

human CLDN18.2, sequence (P56856 other isoform, or with tags, fused parts or gaps): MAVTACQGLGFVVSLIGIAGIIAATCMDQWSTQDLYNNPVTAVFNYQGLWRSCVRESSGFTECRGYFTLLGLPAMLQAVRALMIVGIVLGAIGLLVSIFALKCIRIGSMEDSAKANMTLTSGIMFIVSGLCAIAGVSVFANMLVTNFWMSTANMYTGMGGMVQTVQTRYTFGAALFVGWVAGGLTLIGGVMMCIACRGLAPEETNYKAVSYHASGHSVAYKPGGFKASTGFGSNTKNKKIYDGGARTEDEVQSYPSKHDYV

The first experiment addresses human CLDN18.2 (human, UniProt P56856 1-261). Nature of the experiment: flow cytometry, HEK293 cells.
Consider B1, for which the EC50 was found to be 92.6 nM.

The molecule B2 gave an EC50 of 9.07 nM.

The molecule B3 registered a concentration for a half-maximal effect (EC50) of 7.89 nM.

With B4, the EC50 amounted to 8.55 nM.

B5 registered an EC50 of 13.1 nM.

For a further experiment, the target named is T1, rat CLDN18.2. Put plainly: flow cytometry, HEK293 cells. For orientation: Flow cytometry measures light scatter and fluorescence of single cells or particles in a stream.
B1 yielded an EC50 of 99.1 nM.

B3 had an EC50 of 11.8 nM.

On to B4, for which the midpoint of the response, the EC50, lay at 11.1 nM.

For the molecule B5, the EC50 was 10.5 nM.

The target in the next experiment is T2, mouse CLDN18.2. Nature of the experiment: flow cytometry, HEK293 cells.
B1 returned a concentration for a half-maximal effect (EC50) of 81.3 nM.
